Results taken from the supplement of paper PMC10567573.
± gives the standard deviation.

Test: protein stability index of a GFP-peptide fusion (GPS, HEK-293T) (PSI 1-6); higher = more stable
[1] = treatment: DMSO, c terminus: a fixed tail appended
[2] = treatment: MLN4924 1 uM, 8 h, c terminus: a fixed tail appended
[3] = treatment: DMSO, c terminus: native
[4] = treatment: MLN4924 1 uM, 8 h, c terminus: native
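Also: 24-mer peptide tiles fused after GFP, lentivirally expressed, FACS-sorted into six equal bins by GFP/DsRed ratio, decoded by Illumina sequencing, PSI is the read-weighted mean bin number.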

| Sequence | protein stability index [1] | protein stability index [2] | protein stability index [3] | protein stability index [4] |
| --- | --- | --- | --- | --- |
| QWWASVGMDDFLGVYSMPAGTKVF [TLE6] | 2.23 ± 0.82 | 2.26 ± 0.45 | – | – |
| RAGPDSAGIALYSHEDVCVFKCSV [CARM1] | 2.35 ± 0.47 | 2.06 ± 0.41 | – | – |
| RALQEEERAAAQARRELQAEREAL [ZBED3] | 5.36 ± 0.19 | 5.45 ± 0.18 | – | – |
| RALQERLGQQQRDMRRDEEGSLCA [FBF1] | 4.95 ± 0.36 | 5.03 ± 0.32 | – | – |
| RAPGAGLGQDRQVPLWGQLLLFLV [EMD] | 2.49 ± 0.17 | 2.09 ± 0.37 | – | – |
| RCYYYEDTISTIKSVAWEGGACPA [NCF4] | 2.31 ± 0.21 | 2.43 ± 0.24 | – | – |
| RDEVAFHTAKCEKLQKEKEELERR [MTUS2] | 5.61 ± 0.17 | 5.44 ± 0.33 | – | – |
| RDRQQAPGLGQESKAPGSCDPGTD [TLE6] | 5.45 ± 0.12 | 5.46 ± 0.16 | – | – |
| REHCPENRERVVSLIEDLQRELEI [ZNF449] | 3.91 ± 0.21 | 4 ± 0.28 | – | – |
| REIEELLAEAKYYLVQGLVEECQA [KCTD10] | 2.02 ± 0.34 | 2.16 ± 0.25 | – | – |
| RELDAISTNEEEKEENEAESDVKH [PRIM1] | 5.57 ± 0.17 | 5.62 ± 0.24 | – | – |
| REQADSCREQLDIMNDLSNRVWSI [TRIM14] | 2.23 ± 0.11 | 2.28 ± 0.46 | – | – |
| RFGQTIQSFTLRGDHRSPASAQKF [NET1] | 3.14 ± 0.27 | 3.27 ± 0.32 | – | – |
| RFPLDSAQDPDVGTNTVSFYTLSP [PCDHGC5] | 3.68 ± 0.15 | 3.88 ± 0.12 | – | – |
| RFVQAEGRRATLQRLVEALEENEL [TRADD] | 3.57 ± 0.39 | 3.62 ± 0.37 | – | – |
| RGEGIQAPSFSSYLYFLFCPTLIY [SOAT2] | 3.49 ± 0.45 | 3.36 ± 0.69 | – | – |
| RGFVFGGRYRDARMNDLHYLNLDT [KLHDC2] | 2.71 ± 0.33 | 2.59 ± 0.35 | – | – |
| RGKLKKTEEELRRIQTQKEQAKEN [ZC2HC1C] | 5.31 ± 0.13 | 5.39 ± 0.13 | – | – |
| RHCPLPQATFWGLVTPRSWSCHT [SOAT2] | – | – | 2.55 ± 0.64 | 2.44 ± 0.62 |
| RIHVGKKYGDIPRGIFVVRGENVV [LSM1] | 2.37 ± 0.17 | 2.24 ± 0.15 | – | – |
| RIQIWFQNRRAKLKRSHRESQFLM [HESX1] | 2.43 ± 0.76 | 2.15 ± 0.67 | – | – |
| RKSVPGPGNRTCTGTSKRYQLCRV [ADAMTSL2] | 2.91 ± 0.41 | 2.68 ± 0.093 | – | – |
| RLAQVKRKILVLDLDETLIHSHHD [CTDNEP1] | 2.41 ± 0.73 | 2.58 ± 0.36 | – | – |

| Sequence | protein stability index [1] | protein stability index [2] | protein stability index [3] | protein stability index [4] |
| --- | --- | --- | --- | --- |
| RLDYLNLKGARLTVEQGCQILDSL [FBXO39] | 3.25 ± 0.088 | 3.54 ± 0.22 | – | – |
| RLKEMKLLRDQFVKALEDFEDLCD [FAM9B] | 2.27 ± 0.13 | 2.52 ± 0.38 | – | – |
| RLLSDATVEKDESHAGKVVLRSWY [FAM50A] | 3.02 ± 0.11 | 3.26 ± 0.12 | – | – |
| RLVDRDSVWGYDLGLRSLIPAVLT [MYORG] | 2.25 ± 0.54 | 2.28 ± 0.12 | – | – |
| RLVSSPCCIVTSTYGWTANMERIM [HSP90AB1] | 2.86 ± 0.68 | 2.35 ± 0.33 | – | – |
| RNLETQHKVLELTAENERLQKKVE [CEBPB] | 5.12 ± 0.57 | 5.49 ± 0.049 | – | – |
| RNLRTQQEIEDKMKGFSFKEDTLL [C8orf76] | 4.11 ± 0.12 | 4.16 ± 0.19 | – | – |
| RNSKASAYCLDQGAEDGDRAILYP [GALNT9] | 4.32 ± 0.3 | 4.4 ± 0.2 | – | – |
| RPRRYVQPPEMIGPMRPEQFSDEV [GAGE1] | 3.86 ± 0.26 | 4.41 ± 0.32 | – | – |
| RPTYFEMKNEKLLSKASEPKYQLF [RNF180] | 2.54 ± 0.28 | 2.78 ± 0.19 | – | – |
| RQHIPDTYLCERCQPRNLDKERAV [KMT2E] | 2.81 ± 0.47 | 3.35 ± 0.15 | – | – |
| RQNLSKSWLDVQVSNTYVKQKTSA [TPD52L3] | 3.83 ± 0.28 | 3.8 ± 0.25 | – | – |
| RQQRLNQLEKPPEKEEDHAPEFIK [FAM107A] | 5.33 ± 0.15 | 5.34 ± 0.35 | – | – |
| RQVQSLMVHQRKLEAELLQIEERH [SMARCE1] | 4 ± 0.12 | 4.23 ± 0.17 | – | – |
| RQVVDILWSDPMAQEGCKANTIRG [PPEF2] | 3.14 ± 0.31 | 3.55 ± 0.38 | – | – |
| RQYRSIEVLIGAGYSTPADIWSTA [SRPK2] | 1.9 ± 0.37 | 2 ± 0.44 | – | – |
| RREEEERRRIEEERLRLEQQKQQI [ACBD3] | 5.35 ± 0.19 | 5.05 ± 0.41 | – | – |
| RRGELRHITKLKPWSLFDVLVEKY [SRPK2] | 2.4 ± 0.53 | 2.12 ± 0.057 | – | – |
| RRGQEPLSALLQFGVTYLEDYSAE [BCL2L13] | 3.11 ± 0.3 | 3.17 ± 0.43 | – | – |
| RRGVSDWDLRMKLHDRGAQVIHPQ [DNAAF3] | 3.58 ± 0.092 | 3.55 ± 0.35 | – | – |
| RRKEYDALKAAKREQEKKPKKEAN [LRRC59] | 5.25 ± 0.15 | 5.17 ± 0.22 | – | – |
| RRMTVVGRLEGLIQPDDLINQLTF [FAF2] | 2.36 ± 0.2 | 2.33 ± 0.49 | – | – |
| RRRQRSEKKKAHYRQSSFPHCSDL [KCNA4] | 3.66 ± 0.16 | 3.98 ± 0.19 | – | – |

| Sequence | protein stability index [1] | protein stability index [2] | protein stability index [3] | protein stability index [4] |
| --- | --- | --- | --- | --- |
| RRRRMETIVFLDKEVFASRISNPS [PCMTD2] | 2.57 ± 0.26 | 2.77 ± 0.38 | – | – |
| RRRSRKKPSGALGSESYKSSAGSA [EHMT1] | 4.86 ± 0.32 | 5.3 ± 0.073 | – | – |
| RRRWCPAGIMLLALVCLLSCLLPS [SPACA3] | 2.85 ± 0.55 | 2.77 ± 0.3 | – | – |
| RSPIIDVKNDRDRVGHKSIPMRNL [SERPINB5] | 3.83 ± 0.13 | 4 ± 0.36 | – | – |
| RSRGKVLKTKDGKLPFCAMGVSSV [CPOX] | 3.4 ± 0.2 | 3.15 ± 0.41 | – | – |
| RTLSAFLCLGGLACLIVMFLPEKK [SLC22A15] | 3.25 ± 0.42 | 2.64 ± 0.36 | – | – |
| RVFKARIYTNRYETNEEDKTLQEI [FBXO39] | 2.98 ± 0.34 | 3.43 ± 0.38 | – | – |
| RVPQTWSKRLYGVYDNEKKLQLQL [PLD5] | 2.39 ± 0.32 | 2.31 ± 0.28 | – | – |
| RWDPVRRRFIQSCPIIRIPNRFLR [KLHDC10] | 2.48 ± 0.42 | 2.49 ± 0.2 | – | – |
| RYLFLDGDSHYEIEIVHISTVQIL [ZFYVE21] | 2.89 ± 0.26 | 2.61 ± 0.4 | – | – |
| SALTFLRVDQDKDKDCSLDCAGSP [SMOC2] | 4.92 ± 0.42 | 5 ± 0.088 | – | – |
| SAYISNYAFANVFHGWKYMFGLVI [SLC2A12] | 2.91 ± 0.38 | 2.9 ± 0.67 | – | – |
| SDGGQKNKPREHIIDCGDIVWSLA [WSB1] | 3.07 ± 0.36 | 3.23 ± 0.21 | – | – |
| SDGSCKTAGEMVFVYENAKEGARN [BTBD10] | 4.31 ± 0.18 | 4.48 ± 0.16 | – | – |
| SDLPTPQAIEPQAIVQQVPAPSRM [SNX8] | 5.21 ± 0.11 | 5.13 ± 0.19 | – | – |
| SDRFGRKKVYLTGFALDILFAIAN [SLC22A15] | 2.51 ± 0.64 | 2.17 ± 0.41 | – | – |
| SDSGLSLDSSHSPSSLSSSEGSSS [NFE2L1] | 5.41 ± 0.23 | 5.34 ± 0.17 | – | – |
| SEFHPHHCNLFVYSSSKGSLRLCD [PPP2R2C] | 2.23 ± 0.16 | 2.27 ± 0.26 | – | – |
| SEVSCKKRDDYLEWPEYFMAVAFL [DCTD] | 2.15 ± 0.48 | 2.16 ± 0.26 | – | – |
| SGCDKEALLTGGGSENRNHRLLNM [RNF180] | 3.58 ± 0.28 | 3.86 ± 0.29 | – | – |
| SGEELHELFHTIDTHNTNNLDTEE [NECAB1] | 5.12 ± 0.6 | 5.08 ± 0.68 | – | – |
| SGFLKEMACPYSVLISGDIKDRLK [FAM98B] | 2.38 ± 0.49 | 2.52 ± 0.18 | – | – |
| SGRLSASWEPLSGPSTPSPVAAQF [FCHO1] | 3.14 ± 0.25 | 3.02 ± 0.23 | – | – |

| Sequence | protein stability index [1] | protein stability index [2] | protein stability index [3] | protein stability index [4] |
| --- | --- | --- | --- | --- |
| SHEANKLQDMLDGFIKKFVLCPEC [EIF5] | 2.49 ± 0.74 | 2.65 ± 0.38 | – | – |
| SHTLEERVVHWYFKLLDKNSSGDI [SMOC2] | 2.44 ± 0.36 | 2.03 ± 0.21 | – | – |
| SIIHQMEKFSSSLHELSSRVEASH [FBF1] | 2.72 ± 0.21 | 2.96 ± 0.2 | – | – |
| SITSKPATLTTTSATSKLIHPDED [ZNF207] | 5.31 ± 0.26 | 5.44 ± 0.28 | – | – |
| SKKGLSFFAFEHSEEYQQAQHKFL [TCF25] | 2.85 ± 0.21 | 3 ± 0.15 | – | – |
| SLKAKVSDNMSHLMVDFAQERQML [FSD1] | 3.33 ± 0.22 | 3.31 ± 0.31 | – | – |
| SLLQPVTPLGTSRWRKISAALPY [NCF4] | – | – | 2.54 ± 0.27 | 2.24 ± 0.28 |
| SLPTTAPSNSSSLTLSGIKEDNSL [MYBL2] | 4.91 ± 0.17 | 5.2 ± 0.13 | – | – |
| SLRSYLKRRGPQRSVDVVVSSVFL [PHTF1] | 2.48 ± 0.32 | 2.09 ± 0.24 | – | – |
| SLTNDWEDHLAVKHFSVEGQLEFR [HSP90AB1] | 3.49 ± 0.23 | – | – | – |
| SMKHTATARFQRNHRLISEILSES [SMARCE1] | 2.95 ± 0.12 | 3.24 ± 0.5 | – | – |
| SMPRINHGVLSAEGFLFVFGGQDE [GAN] | 3.05 ± 0.41 | 2.88 ± 0.72 | – | – |
| SMQCKVILLDGSEYTCDVEKRSRG [EPB41L3] | 3.04 ± 0.29 | 3.61 ± 0.3 | – | – |
| SNRWLMVKIFLILIVFFIIFVVFL [STX5] | 3.38 ± 0.24 | 3.45 ± 0.32 | – | – |
| SNTLGFGTEQAPYGMQTQNYPKGG [ETS2] | 4.29 ± 0.26 | 4.2 ± 0.28 | – | – |
| SPAQQVPKNPALEAFLAQFSQLED [TOR1AIP2] | 4.26 ± 0.45 | 4.38 ± 0.31 | – | – |
| SPFTNLLNGSSQPTTRNYPELNNN [CDC14A] | 4.04 ± 0.1 | 4.26 ± 0.16 | – | – |
| SPPKSPRTTVHDKSAHQTHSSWTP [DNAJC4] | 4.36 ± 0.15 | 4.41 ± 0.2 | – | – |
| SPRGPAPGEEKFENLEGVPSVCSE [ZNF263] | 5.41 ± 0.39 | 5.44 ± 0.29 | – | – |
| SPTGLSPYLRFGCLSCRLFYFKLT [CRY1] | 1.84 ± 0.27 | 2.14 ± 0.43 | – | – |
